Drawing on patent US20120329995A1, this text covers antibody concentration giving comparable binding for one substance.

The assay deals with human CD3 (human) (UniProt P07766). Briefly: flow cytometry, serially diluted antibody on Jurkat cells, PE goat anti-mouse IgG. Background: A flow cytometer gives signals particle by particle.
Chain of human CD3 (human) (P07766 23-207): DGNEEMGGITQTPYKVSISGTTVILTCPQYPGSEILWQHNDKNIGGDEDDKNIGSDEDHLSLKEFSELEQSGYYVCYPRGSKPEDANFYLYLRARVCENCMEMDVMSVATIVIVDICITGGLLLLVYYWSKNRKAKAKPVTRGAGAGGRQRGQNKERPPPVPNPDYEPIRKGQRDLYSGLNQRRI

“OKT3 antibody (mouse anti-human CD3, recombinant, made in 293T cells from pME-wtOKT3 HC and pME-wtOKT3 LC)”: the antibody concentration giving comparable binding stood at 0.4 ng/mL.
